Laboratory results: article PMC3792999, “Identification and Characterization of a Cold-Active Phthalate Esters Hydrolase by Screening a Metagenomic Library Derived from Biofilms of a Wastewater Treatment Plant” (PLoS ONE, 2013)

Tests used:
Test in all cases: purified protein
[1] = system: CCCCCOC(=O)c1ccccc1C(=O)OCCCCC; details: pH 7.5; 10.0 °C
[2] = system: CCCCOC(=O)c1ccccc1C(=O)OCCCC
[3] = system: CCCOC(=O)c1ccccc1C(=O)OCCC; details: pH 7.5; 10.0 °C
[4] = 10 mM sodium phosphate pH 7.5, 10°C

Substance DphB (uncultured bacterium) has a Km [1] of 378 ± 18 µM, a Vmax [1] of 45.9 µmol/min/mg and a kcat/Km [1] of 118000 ± 4000 M⁻¹ s⁻¹. It also gave a Km ([2]; pH 7.5, 10.0 °C) of 561 ± 16 µM, a Vmax ([2]; pH 7.5, 10.0 °C) of 40.7 µmol/min/mg and a kcat/Km ([2]; pH 7.5, 10.0 °C) of 70000 ± 2000 M⁻¹ s⁻¹. It also gave a Km [3] of 271 ± 12 µM, a Vmax [3] of 46.4 µmol/min/mg and a kcat/Km [3] of 166000 ± 5000 M⁻¹ s⁻¹.

For DphB (uncultured bacterium; D255A), the Km [2, 4] was 20300 ± 1170 µM and the kcat [2, 4] was 6.95 ± 1.42 s⁻¹.
